Here are results for 13 molecules from patent US20230242651A1 (published 2023).

Experiment [1] concerns the target T1, human interleukin-23 receptor (IL23R) (human, UniProt Q5VWK5 24-355, limits assumed).
T1 construct: also called human IL23R
T1 sequence (looked up): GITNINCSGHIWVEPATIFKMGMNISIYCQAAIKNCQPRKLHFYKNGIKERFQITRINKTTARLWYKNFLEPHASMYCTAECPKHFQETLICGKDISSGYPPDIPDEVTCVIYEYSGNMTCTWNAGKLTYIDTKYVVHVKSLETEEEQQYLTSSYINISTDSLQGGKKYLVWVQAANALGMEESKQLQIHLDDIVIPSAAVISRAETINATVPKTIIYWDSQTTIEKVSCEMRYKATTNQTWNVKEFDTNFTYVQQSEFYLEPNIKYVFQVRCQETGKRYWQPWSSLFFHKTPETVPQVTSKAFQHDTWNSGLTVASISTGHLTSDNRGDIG
The experiment is described as follows: SPR, scFv. Summed up: (§1)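 Humanized rabbit variable domains were built as single-chain variable fragments (scFv) on consensus germline framework pairs, some carrying a λ-cap in which Vκ framework IV was replaced by a Vλ germline sequence. These were expressed in E. coli as inclusion bodies, then solubilized and refolded in a generic refolding buffer. Affinity for human IL23R was determined by surface plasmon resonance and reported as rate constants and dissociation constant, or as the ratio of the λ-capped to uncapped dissociation constant.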

For experiment [2], the target named is T1, human interleukin-23 receptor (IL23R). Kind of experiment: SPR; KD of the capped scFv over KD of its uncapped counterpart. Summed up: as §1
For experiment [3] the target is unchanged. The experiment is described as follows: SPR, scFv (summary table). The procedure, abridged:
as §1

B1: Vκ3/VH3 consensus λ-capped, human IL23R specific scFv (scFv)
scFv: DIVLTQSPATLSLSPGERATLSCQASENIYSFLAWYQQKPGQAPRLLIYSASKLAAGVPARFSGSGSGTDFTLTISSLEPEDFAVYYCQQTNRYSNPDIYNVFGGGTKLTVLGGGGGSGGGGSGGGGSGGGGSEVQLVESGGGLVQPGGSLRLSCAASGIDFNSNYYMCWVRQAPGKGLEWVSCIYVGSHVNTYYANWAKGRFTISRDNSKNTLYLQMNSLRAEDTAVYYCATSGSSVLYFKFWGQGTLVTVSS
notes: scFv VL-linker-VH, made in E. coli; also called Vκ3VH3 capped
In experiment [1], B1 gave an equilibrium dissociation constant (Kd) of 0.022 nM, a koff of 6.38e-05 s⁻¹ and an association rate constant (kon) of 2.89e+06 M⁻¹ s⁻¹. The “Ratio (capped/uncapped) of KD” value in experiment [2] turned out to be 0.6. For the same molecule, the Kd in experiment [3] was determined as 0.022 nM.

B2: Vκ1/VH4 consensus λ-capped, human IL23R specific scFv (scFv)
scFv: DIQMTQSPSSLSASVGDRVTITCQASENIYSFLAWYQQKPGKAPKLLIYSASKLAAGVPSRFSGSGSGTDFTLTISSLQPEDFATYYCQQTNRYSNPDIYNVFGGGTKLTVLGGGGGSGGGGSGGGGSGGGGSQVQLQESGPGLVKPSETLSLTCTVSGIDFNSNYYMCWIRQPPGKGLEWIGCIYVGSHVNTYYANWAKGRVTISVDTSKNQFSLKLSSVTAADTAVYYCATSGSSVLYFKFWGQGTLVTVSS
notes: scFv VL-linker-VH, made in E. coli; also called Vκ1VH4 capped
In experiment [1], B2 displayed a Kd of 0.0455 nM, a koff of 0.000191 s⁻¹ and a kon of 4.2e+06 M⁻¹ s⁻¹. For the same molecule, the “Ratio (capped/uncapped) of KD” value in experiment [2] is 0.5. Also, in experiment [3], binding was put at a Kd of 0.0455 nM.

B3: Vκ1/VH3 consensus λ-capped, human IL23R specific scFv (scFv)
scFv: DIQMTQSPSSLSASVGDRVTITCQASENIYSFLAWYQQKPGKAPKLLIYSASKLAAGVPSRFSGSGSGTDFTLTISSLQPEDFATYYCQQTNRYSNPDIYNVFGGGTKLTVLGGGGGSGGGGSGGGGSGGGGSEVQLVESGGGLVQPGGSLRLSCAASGIDFNSNYYMCWVRQAPGKGLEWVSCIYVGSHVNTYYANWAKGRFTISRDNSKNTLYLQMNSLRAEDTAVYYCATSGSSVLYFKFWGQGTLVTVSS
notes: scFv VL-linker-VH, made in E. coli; also called Vκ1VH3 capped
As to B3, in experiment [1], binding was put at a Kd of 0.0137 nM, the dissociation rate constant (koff) is 5.43e-05 s⁻¹ and the on-rate (kon) turned out to be 3.95e+06 M⁻¹ s⁻¹. Moreover, the “Ratio (capped/uncapped) of KD” value in experiment [2] stood at 0.4. This molecule came in with a Kd in experiment [3] of 0.0137 nM.

B4: Vκ1/VH5 consensus λ-capped, human IL23R specific scFv (scFv)
scFv: DIQMTQSPSSLSASVGDRVTITCQASENIYSFLAWYQQKPGKAPKLLIYSASKLAAGVPSRFSGSGSGTDFTLTISSLQPEDFATYYCQQTNRYSNPDIYNVFGGGTKLTVLGGGGGSGGGGSGGGGSGGGGSEVQLVQSGAEVKKPGESLKISCKGSGIDFNSNYYMCWVRQMPGKGLEWMGCIYVGSHVNTYYANWAKGQVTISADKSISTAYLQWSSLKASDTAMYYCATSGSSVLYFKFWGQGTLVTVSS
notes: scFv VL-linker-VH, made in E. coli; also called Vκ1VH5 capped
In experiment [1], B4 returned a Kd of 0.398 nM, a koff of 0.000671 s⁻¹ and an on-rate constant (kon) of 1.69e+06 M⁻¹ s⁻¹. Also, the “Ratio (capped/uncapped) of KD” value in experiment [2] was found to be 1.7. The Kd in experiment [3] stood at 0.398 nM.

B5: Vκ1/VH6 consensus λ-capped, human IL23R specific scFv (scFv)
scFv: DIQMTQSPSSLSASVGDRVTITCQASENIYSFLAWYQQKPGKAPKLLIYSASKLAAGVPSRFSGSGSGTDFTLTISSLQPEDFATYYCQQTNRYSNPDIYNVFGGGTKLTVLGGGGGSGGGGSGGGGSGGGGSQVQLQQSGPGLVKPSQTLSLTCAISGIDFNSNYYMCWIRQSPGRGLEWLGCIYVGSHVNTYYANWAKGRITINPDTSKNQFSLQLNSVTPEDTAVYYCATSGSSVLYFKFWGQGTLVTVSS
notes: scFv VL-linker-VH, made in E. coli; also called Vκ1VH6 capped
In experiment [1], B5 showed a Kd of 0.245 nM, an off-rate (koff) of 0.000349 s⁻¹ and a kon of 1.42e+06 M⁻¹ s⁻¹. In experiment [2], the “Ratio (capped/uncapped) of KD” value was 1. Moreover, the Kd in experiment [3] was determined as 0.245 nM.

B6: Vκ3/VH4 consensus λ-capped, human IL23R specific scFv (scFv)
scFv: DIVLTQSPATLSLSPGERATLSCQASENIYSFLAWYQQKPGQAPRLLIYSASKLAAGVPARFSGSGSGTDFTLTISSLEPEDFAVYYCQQTNRYSNPDIYNVFGGGTKLTVLGGGGGSGGGGSGGGGSGGGGSQVQLQESGPGLVKPSETLSLTCTVSGIDFNSNYYMCWIRQPPGKGLEWIGCIYVGSHVNTYYANWAKGRVTISVDTSKNQFSLKLSSVTAADTAVYYCATSGSSVLYFKFWGQGTLVTVSS
notes: scFv VL-linker-VH, made in E. coli; also called Vκ3VH4 capped
Regarding B6, in experiment [1], the Kd is 0.123 nM, the koff is 0.000288 s⁻¹ and the on-rate constant (kon) is 2.35e+06 M⁻¹ s⁻¹. The “Ratio (capped/uncapped) of KD” value in experiment [2] came to 0.9. In experiment [3], this molecule had a dissociation constant Kd of 0.123 nM.

B7: Vκ2/VH4 consensus λ-capped, human IL23R specific scFv (scFv)
scFv: DIVMTQSPLSLPVTPGEPASISCQASENIYSFLAWYLQKPGQSPQLLIYSASKLAAGVPDRFSGSGSGTDFTLKISRVEAEDVGVYYCQQTNRYSNPDIYNVFGGGTKLTVLGGGGGSGGGGSGGGGSGGGGSQVQLQESGPGLVKPSETLSLTCTVSGIDFNSNYYMCWIRQPPGKGLEWIGCIYVGSHVNTYYANWAKGRVTISVDTSKNQFSLKLSSVTAADTAVYYCATSGSSVLYFKFWGQGTLVTVSS
notes: scFv VL-linker-VH, made in E. coli; also called Vκ2VH4 capped
In experiment [1], B7 yielded a Kd of 0.0481 nM, a koff of 0.000112 s⁻¹ and a kon of 2.33e+06 M⁻¹ s⁻¹. Also, the “Ratio (capped/uncapped) of KD” value in experiment [2] is 0.4. In experiment [3], this molecule registered a dissociation constant Kd of 0.0481 nM.

B8: Vκ1/VH2 consensus λ-capped, human IL23R specific scFv (scFv)
scFv: DIQMTQSPSSLSASVGDRVTITCQASENIYSFLAWYQQKPGKAPKLLIYSASKLAAGVPSRFSGSGSGTDFTLTISSLQPEDFATYYCQQTNRYSNPDIYNVFGGGTKLTVLGGGGGSGGGGSGGGGSGGGGSQVQLKESGPALVKPTQTLTLTCTFSGIDFNSNYYMCWIRQPPGKALEWLACIYVGSHVNTYYANWAKGRLTISKDTSKNQVVLTMTNMDPVDTATYYCATSGSSVLYFKFWGQGTLVTVSS
notes: scFv VL-linker-VH, made in E. coli; also called Vκ1VH2 capped
In experiment [1], B8 yielded a Kd of 0.0731 nM, a koff of 0.000128 s⁻¹ and a kon of 1.76e+06 M⁻¹ s⁻¹. In addition, the “Ratio (capped/uncapped) of KD” value in experiment [2] is 0.3. In experiment [3], this molecule gave a Kd of 0.0731 nM.

B9: Vκ3/VH5 consensus λ-capped, human IL23R specific scFv (scFv)
scFv: DIVLTQSPATLSLSPGERATLSCQASENIYSFLAWYQQKPGQAPRLLIYSASKLAAGVPARFSGSGSGTDFTLTISSLEPEDFAVYYCQQTNRYSNPDIYNVFGGGTKLTVLGGGGGSGGGGSGGGGSGGGGSEVQLVQSGAEVKKPGESLKISCKGSGIDFNSNYYMCWVRQMPGKGLEWMGCIYVGSHVNTYYANWAKGQVTISADKSISTAYLQWSSLKASDTAMYYCATSGSSVLYFKFWGQGTLVTVSS
notes: scFv VL-linker-VH, made in E. coli; also called Vκ3VH5 capped
Take B9: in experiment [1], binding was characterised by a dissociation constant (Kd) of 0.864 nM, the off-rate constant (koff) turned out to be 0.0013 s⁻¹ and the kon stood at 1.5e+06 M⁻¹ s⁻¹. Further, in experiment [2], the “Ratio (capped/uncapped) of KD” value amounted to 1.6. Also, in experiment [3], binding was characterised by a dissociation constant (Kd) of 0.864 nM.

B10: Vκ1/VH1A consensus λ-capped, human IL23R specific scFv (scFv)
scFv: DIQMTQSPSSLSASVGDRVTITCQASENIYSFLAWYQQKPGKAPKLLIYSASKLAAGVPSRFSGSGSGTDFTLTISSLQPEDFATYYCQQTNRYSNPDIYNVFGGGTKLTVLGGGGGSGGGGSGGGGSGGGGSQVQLVQSGAEVKKPGSSVKVSCKASGIDFNSNYYMCWVRQAPGQGLEWMGCIYVGSHVNTYYANWAKGRVTITADESTSTAYMELSSLRSEDTAVYYCATSGSSVLYFKFWGQGTLVTVSS
notes: scFv VL-linker-VH, made in E. coli; also called Vκ1VH1A capped
In experiment [1], B10 showed a Kd of 0.166 nM, a koff of 0.000616 s⁻¹ and a kon of 3.71e+06 M⁻¹ s⁻¹. In addition, the “Ratio (capped/uncapped) of KD” value in experiment [2] came out at 8.3. This molecule returned a Kd in experiment [3] of 0.166 nM.

B11: Vκ1/VH1B consensus λ-capped, human IL23R specific scFv (scFv)
scFv: DIQMTQSPSSLSASVGDRVTITCQASENIYSFLAWYQQKPGKAPKLLIYSASKLAAGVPSRFSGSGSGTDFTLTISSLQPEDFATYYCQQTNRYSNPDIYNVFGGGTKLTVLGGGGGSGGGGSGGGGSGGGGSQVQLVQSGAEVKKPGASVKVSCKASGIDFNSNYYMCWVRQAPGQGLEWMGCIYVGSHVNTYYANWAKGRVTMTRDTSISTAYMELSSLRSEDTAVYYCATSGSSVLYFKFWGQGTLVTVSS
notes: scFv VL-linker-VH, made in E. coli; also called Vκ1VH1B capped
As for B11, in experiment [1], the Kd is 0.199 nM, the koff was 0.000478 s⁻¹ and the kon came out at 2.4e+06 M⁻¹ s⁻¹. Further, the “Ratio (capped/uncapped) of KD” value in experiment [2] was determined as 1.2. Besides, the Kd in experiment [3] was determined as 0.199 nM.

B12: Vκ2/VH3 consensus λ-capped, human IL23R specific scFv (scFv)
scFv: DIVMTQSPLSLPVTPGEPASISCQASENIYSFLAWYLQKPGQSPQLLIYSASKLAAGVPDRFSGSGSGTDFTLKISRVEAEDVGVYYCQQTNRYSNPDIYNVFGGGTKLTVLGGGGGSGGGGSGGGGSGGGGSEVQLVESGGGLVQPGGSLRLSCAASGIDFNSNYYMCWVRQAPGKGLEWVSCIYVGSHVNTYYANWAKGRFTISRDNSKNTLYLQMNSLRAEDTAVYYCATSGSSVLYFKFWGQGTLVTVSS
notes: scFv VL-linker-VH, made in E. coli; also called Vκ2VH3 capped
In the case of B12, in experiment [1], the Kd worked out at 0.0397 nM, the koff came out at 7.77e-05 s⁻¹ and the kon came out at 1.95e+06 M⁻¹ s⁻¹. Moreover, the “Ratio (capped/uncapped) of KD” value in experiment [2] came to 1.7. In experiment [3], this molecule had a Kd of 0.0397 nM.

B13: Vκ2/VH1A consensus λ-capped, human IL23R specific scFv (scFv)
scFv: DIVMTQSPLSLPVTPGEPASISCQASENIYSFLAWYLQKPGQSPQLLIYSASKLAAGVPDRFSGSGSGTDFTLKISRVEAEDVGVYYCQQTNRYSNPDIYNVFGGGTKLTVLGGGGGSGGGGSGGGGSGGGGSQVQLVQSGAEVKKPGSSVKVSCKASGIDFNSNYYMCWVRQAPGQGLEWMGCIYVGSHVNTYYANWAKGRVTITADESTSTAYMELSSLRSEDTAVYYCATSGSSVLYFKFWGQGTLVTVSS
notes: scFv VL-linker-VH, made in E. coli; also called Vκ2VH1A capped
For B13, in experiment [1], the Kd is 0.0772 nM, the koff is 0.000184 s⁻¹ and the kon came to 2.39e+06 M⁻¹ s⁻¹. For the same molecule, the “Ratio (capped/uncapped) of KD” value in experiment [2] amounted to 0.3. This molecule showed a Kd in experiment [3] of 0.0772 nM.
